According to article PMC6527180, “A chloride ring is an ancient evolutionary innovation mediating the assembly of the collagen IV scaffold of basement membranes” (The Journal of Biological Chemistry, 2019):

T1: bovine α1 NC1 monomer (collagen IV α1-chain NC1 domain from bovine lens basement membrane) (bovine, UniProt Q7SIB2 1441-1669)
T1 construct: collagen IV α1-chain NC1 domain, bovine, monomer from tissue-extracted NC1 hexamer; Used as a mixture with the α2 NC1 monomer; also called tissue-derived α1 NC1 monomer; NC1 monomers; source: purified from bovine lens basement membrane
T1 sequence: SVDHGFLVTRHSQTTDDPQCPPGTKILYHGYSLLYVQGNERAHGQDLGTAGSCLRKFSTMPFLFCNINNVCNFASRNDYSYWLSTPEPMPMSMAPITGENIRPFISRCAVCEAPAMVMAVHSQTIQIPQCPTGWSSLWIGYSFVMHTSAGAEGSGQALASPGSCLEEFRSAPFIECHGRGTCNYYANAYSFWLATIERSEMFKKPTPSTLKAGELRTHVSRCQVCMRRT

T2: human collagen IV α1-chain NC1 domain, first domain of the single-chain trimer (residues 1438–1666) (human, UniProt P02462 1438-1666)
T2 construct: collagen IV α1-chain NC1 domain, human, residues 1438–1666; Not a free protein: joined by a GTG linker to m5 on the single chain m1; written apart for the domain-domain contacts in the crystal structure; also called α1 NC1 domain; not shown: FLAG, N-terminal, kept
T2 sequence (looked up): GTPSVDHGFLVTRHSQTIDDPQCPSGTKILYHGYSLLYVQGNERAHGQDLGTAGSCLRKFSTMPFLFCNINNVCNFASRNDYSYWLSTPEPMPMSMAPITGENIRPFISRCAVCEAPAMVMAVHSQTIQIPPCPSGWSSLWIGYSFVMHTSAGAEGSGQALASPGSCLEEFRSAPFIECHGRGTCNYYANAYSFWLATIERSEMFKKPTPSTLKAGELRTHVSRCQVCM

B1: single-chain α121 NC1 trimer (sc121 NC1-trimer) (other, human)
chain: GTPSVDHGFLVTRHSQTIDDPQCPSGTKILYHGYSLLYVQGNERAHGQDLGTAGSCLRKFSTMPFLFCNINNVCNFASRNDYSYWLSTPEPMPMSMAPITGENIRPFISRCAVCEAPAMVMAVHSQTIQIPPCPSGWSSLWIGYSFVMHTSAGAEGSGQALASPGSCLEEFRSAPFIECHGRGTCNYYANAYSFWLATIERSEMFKKPTPSTLKAGELRTHVSRCQVCMGTGYLLVKHSQTDQEPMCPVGMNKLWSGYSLLYFEGQEKAHNQDLGLAGSCLARFSTMPFLYCNPGDVCYYASRNDKSYWLSTTAPLPMMPVAEDEIKPYISRCSVCEAPAIAIAVHSQDVSIPHCPAGWRSLWIGYSFLMHTAAGDEGGGQSLVSPGSCLEDFRATPFIECNGGRGTCHYYANKYSFWLTTIPEQSFQGSPSADTLKAGLIRTHISRCQVCMAPGFLVTRHSQTIDDPQCPSGTKILYHGYSLLYVQGNERAHGQDLGTAGSCLRKFSTMPFLFCNINNVCNFASRNDYSYWLSTPEPMPMSMAPITGENIRPFISRCAVCEAPAMVMAVHSQTIQIPPCPSGWSSLWIGYSFVMHTSAGAEGSGQALASPGSCLEEFRSAPFIECHGRGTCNYYANAYSFWLATIERSEMFKKPTPSTLKAGELRTHVSRCQVCMRRT
notes: collagen IV α1-chain NC1 domain, human, residues 1438–1666; artificial Gly–Thr–Gly linker between α1 and α2; collagen IV α2-chain NC1 domain, human, residues 1490–1709; artificial Ala–Pro–Gly linker between α2 and α1; collagen IV α1-chain NC1 domain, human, residues 1446–1669 (including final C-terminal residues); Vector-derived residues between the FLAG tag and the first α1 residue may be …
B2: bovine α2 NC1 monomer (collagen IV α2-chain NC1 domain from bovine lens basement membrane) (domain or fragment)
chain: ISIGYLLVKHSQTDQEPMCPVGMNKLWSGYSLLYFEGQEKAHNQDLGLAGSCLARFSTMPFLYCNPGDVCYYASRNDKSYWLSTTAPLPMMPVAEEDIRPYISRCSVCEAPAVAIAVHSQDVSIPHCPAGWRSLWIGYSFLMHTAAGDEGGGQSLVSPGSCLEDFRATPFIECNGARGTCHYYANKYSFWLTTIPEQSFQGTPSADTLKAGLIRTHISRCQVCMKNL
notes: collagen IV α2-chain NC1 domain, bovine, monomer from tissue-extracted NC1 hexamer; Used as a mixture with the α1 NC1 monomer; also called tissue-derived α2 NC1 monomer; NC1 monomers; source: purified from bovine lens basement membrane
B3: human collagen IV α1-chain NC1 domain, third domain of the single-chain trimer (residues 1446–1669) (domain or fragment, UniProt P02462 1446-1669, looked up)
chain: FLVTRHSQTIDDPQCPSGTKILYHGYSLLYVQGNERAHGQDLGTAGSCLRKFSTMPFLFCNINNVCNFASRNDYSYWLSTPEPMPMSMAPITGENIRPFISRCAVCEAPAMVMAVHSQTIQIPPCPSGWSSLWIGYSFVMHTSAGAEGSGQALASPGSCLEEFRSAPFIECHGRGTCNYYANAYSFWLATIERSEMFKKPTPSTLKAGELRTHVSRCQVCMRRT
notes: collagen IV α1-chain NC1 domain, human, residues 1446–1669 (including final C-terminal residues); Not a free protein: joined by an APG linker to m5 on the single chain m1; also called α1 NC1 domain
B4: human collagen IV α2-chain NC1 domain, second domain of the single-chain trimer (residues 1490–1709) (domain or fragment, UniProt P08572 1490-1709, looked up)
chain: YLLVKHSQTDQEPMCPVGMNKLWSGYSLLYFEGQEKAHNQDLGLAGSCLARFSTMPFLYCNPGDVCYYASRNDKSYWLSTTAPLPMMPVAEDEIKPYISRCSVCEAPAIAIAVHSQDVSIPHCPAGWRSLWIGYSFLMHTAAGDEGGGQSLVSPGSCLEDFRATPFIECNGGRGTCHYYANKYSFWLTTIPEQSFQGSPSADTLKAGLIRTHISRCQVCM
notes: collagen IV α2-chain NC1 domain, human, residues 1490–1709; Not a free protein: joined by GTG (N-terminal side, to m4) and APG (C-terminal side, to m6) linkers on the single chain m1; also called α2 NC1 domain

Legend:
[1] = biological target: the molecule itself; assay: SEC; in vitro hexamer assembly: 1 mg/ml in 25 mM Tris acetate pH 7.5, induced with 150 mM NaCl, 24 h at 37 °C unless varied (NaCl, protein, temperature, time); hexamer peak quantified by SEC; second-order fit T+T→H
[2] = biological target: the molecule itself; assay: AUC; sedimentation equilibrium, 0.3 mg/ml in Cl−-free TNA (25 mM Tris acetate pH 7.5, 150 mM sodium acetate), 4 °C, 10,000 rpm, 48 h; trimer–to–hexamer self-association model (two single chains to one hexamer), trimer mass fixed to 74 kDa
[3] = biological target: T1, bovine α1 NC1 monomer (collagen IV …); assay: co-IP; bovine α1 and α2 NC1 monomers incubated with sc121 NC1-trimer in the presence of Cl−; formed hexamers immunoprecipitated by the FLAG tag of the recombinant trimer and their composition analysed (Fig. S3); conditions: both partners purified
[4] = biological target: B2; assay: as above; conditions: both partners purified
[5] = biological target: the molecule itself; assay: crystal structure; X-ray, 1.9 Å, space group P4_(1)2_(1)2; protein 11 mg/ml in 5 mM Tris-HCl pH 7.5, 150 mM NaCl; hexamer by crystallographic 2-fold
[6] = biological target: T1, bovine α1 NC1 monomer (collagen IV …); assay: SEC; in vitro hexamer assembly: 1 mg/ml in 25 mM Tris acetate pH 7.5, induced with 150 mM NaCl, 24 h at 37 °C unless varied (NaCl, protein, temperature, time); hexamer peak quantified by SEC; second-order fit T+T→H; conditions: both partners purified
[7] = biological target: T2, human collagen IV α1-chain NC1 domain, …; assay: crystal structure; X-ray, 1.9 Å, space group P4_(1)2_(1)2; protein 11 mg/ml in 5 mM Tris-HCl pH 7.5, 150 mM NaCl; hexamer by crystallographic 2-fold; conditions: both partners purified
[8] = biological target: B3; assay: as above; conditions: both partners purified

Binder: B1
kon [1]: 3.45 ± 0.12 M⁻¹ s⁻¹
Kd [2]: 37 µM
binding result [3]: binds
binding result [4]: binds
stoichiometry N [5]: 2

Binder: B2
binding result [6]: binds

Binder: B3
binding result [7]: binds

Binder: B4
binding result [8]: binds
binding result [7]: binds
